The values below come from article PMC4627068 (Nucleic Acids Research, 2015).

The target in data set [1] is β' subunit of Bacillus subtilis RNAP-σ^A (Bacillus subtilis, UniProt P37871 1-1199). Kind of data set: far-Western, overlay or dot blot.
Data set [2] concerns the molecule itself. The data set is described as follows: far-Western, overlay or dot blot.

β' subunit of Bacillus subtilis RNAP-σ^A, sequence (P37871 whole entry): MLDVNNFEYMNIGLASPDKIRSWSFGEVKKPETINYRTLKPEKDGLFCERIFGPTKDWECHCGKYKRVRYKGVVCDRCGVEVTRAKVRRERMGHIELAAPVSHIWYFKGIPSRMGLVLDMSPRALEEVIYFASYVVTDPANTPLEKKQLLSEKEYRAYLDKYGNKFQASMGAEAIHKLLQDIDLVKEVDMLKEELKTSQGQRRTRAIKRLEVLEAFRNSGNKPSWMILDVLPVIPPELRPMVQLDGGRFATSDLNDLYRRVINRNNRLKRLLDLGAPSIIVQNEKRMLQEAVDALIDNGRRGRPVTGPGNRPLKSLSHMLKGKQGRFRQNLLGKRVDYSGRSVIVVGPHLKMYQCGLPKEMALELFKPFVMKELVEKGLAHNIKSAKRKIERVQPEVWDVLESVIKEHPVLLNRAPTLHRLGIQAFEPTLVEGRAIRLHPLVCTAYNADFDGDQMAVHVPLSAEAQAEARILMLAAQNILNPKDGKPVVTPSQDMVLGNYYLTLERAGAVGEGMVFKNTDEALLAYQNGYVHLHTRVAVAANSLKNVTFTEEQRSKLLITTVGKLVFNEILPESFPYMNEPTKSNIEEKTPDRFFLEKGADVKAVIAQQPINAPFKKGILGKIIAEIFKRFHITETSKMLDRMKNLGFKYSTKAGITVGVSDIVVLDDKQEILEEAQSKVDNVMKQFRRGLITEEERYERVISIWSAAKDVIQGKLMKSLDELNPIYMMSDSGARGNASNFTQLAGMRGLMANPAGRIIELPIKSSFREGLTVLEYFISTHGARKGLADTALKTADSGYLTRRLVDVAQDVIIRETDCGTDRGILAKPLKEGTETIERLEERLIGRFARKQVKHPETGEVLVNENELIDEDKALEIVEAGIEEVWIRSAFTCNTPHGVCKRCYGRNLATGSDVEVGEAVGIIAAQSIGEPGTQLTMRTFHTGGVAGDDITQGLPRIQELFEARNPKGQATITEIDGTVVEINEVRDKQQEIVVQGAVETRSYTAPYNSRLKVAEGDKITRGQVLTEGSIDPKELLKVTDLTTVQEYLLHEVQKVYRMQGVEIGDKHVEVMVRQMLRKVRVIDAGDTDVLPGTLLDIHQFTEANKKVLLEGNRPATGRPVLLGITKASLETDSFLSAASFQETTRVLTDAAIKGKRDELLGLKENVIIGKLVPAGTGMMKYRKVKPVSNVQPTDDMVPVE

B1: ω2 (homodimeric form of the plasmid pSM19035 ω protein) (natural protein, Streptococcus pyogenes, UniProt Q57468 1-71, looked up)
chain: MIVGNLGAQKAKRNDTPISAKKDIMGDKTVRVRADLHHIIKIETAKNGGNVKEVMDQALEEYIRKYLPDKL
With B1, the binding result in data set [1] and in data set [2] was “binds” throughout.
